This note sets out measurements from article PMC12405487.

In data set [1] the target is furin (human) (UniProt P09958). Kind of data set: enzyme inhibition kinetics (fluorogenic substrate); condition 3: 50 mM Hepes/NaOH pH 7.4, 300 mM NaCl, 2 mM CaCl2, 0.2% Triton X-100, 25 °C; substrate Ac-RR(Tle)KR-AMC; triplicates.
In data set [2] the target is furin (human) (UniProt P09958). Kind of data set: enzyme inhibition kinetics (fluorogenic substrate); condition 2: 50 mM Mes/NaOH pH 6.0, 300 mM NaCl, 2 mM CaCl2, 0.2% Triton X-100, 25 °C; substrate Ac-RR(Tle)KR-AMC; triplicates.
Data set [3] deals with furin (soluble, mature, active) (UniProt P09958). In words: NMR, 2D 1H-15N HMBC of histidine side chains as a function of pH (600 MHz). To be noted: pH 6.3-7.4; 278 K (~5 °C); 150 mM NaCl; 50 mM NaH2PO4/Na2HPO4 at each adjusted pH.
The target of another data set is His85 (UniProt position 85, RRSAFHITKRL). In words: NMR. To be noted: 278 K (~5 °C); 150 mM NaCl plus 50 mM sodium phosphate; 50 mM NaH2PO4/Na2HPO4, 150 mM NaCl. The pH was set by dialysis into buffer of the adjusted pH, not by direct acid addition.; Isolated (furin-free) folded prodomain, 0.2 mM.
The target of the next data set is His75 (UniProt position 75, FKHKNHPRRSR). In words: NMR. To be noted: 278 K (~5 °C); 150 mM NaCl plus 50 mM sodium phosphate; 50 mM NaH2PO4/Na2HPO4, 150 mM NaCl. The pH was set by dialysis into buffer of the adjusted pH, not by direct acid addition.; Isolated (furin-free) folded prodomain, 0.2 mM.
Another data set deals with His72 (UniProt position 72, HYLFKHKNHPR). Kind of data set: NMR. To be noted: 278 K (~5 °C); 150 mM NaCl plus 50 mM sodium phosphate; 50 mM NaH2PO4/Na2HPO4, 150 mM NaCl. The pH was set by dialysis into buffer of the adjusted pH, not by direct acid addition.; Isolated (furin-free) folded prodomain, 0.2 mM.

Chain of furin (soluble, mature, active) (P09958 whole entry): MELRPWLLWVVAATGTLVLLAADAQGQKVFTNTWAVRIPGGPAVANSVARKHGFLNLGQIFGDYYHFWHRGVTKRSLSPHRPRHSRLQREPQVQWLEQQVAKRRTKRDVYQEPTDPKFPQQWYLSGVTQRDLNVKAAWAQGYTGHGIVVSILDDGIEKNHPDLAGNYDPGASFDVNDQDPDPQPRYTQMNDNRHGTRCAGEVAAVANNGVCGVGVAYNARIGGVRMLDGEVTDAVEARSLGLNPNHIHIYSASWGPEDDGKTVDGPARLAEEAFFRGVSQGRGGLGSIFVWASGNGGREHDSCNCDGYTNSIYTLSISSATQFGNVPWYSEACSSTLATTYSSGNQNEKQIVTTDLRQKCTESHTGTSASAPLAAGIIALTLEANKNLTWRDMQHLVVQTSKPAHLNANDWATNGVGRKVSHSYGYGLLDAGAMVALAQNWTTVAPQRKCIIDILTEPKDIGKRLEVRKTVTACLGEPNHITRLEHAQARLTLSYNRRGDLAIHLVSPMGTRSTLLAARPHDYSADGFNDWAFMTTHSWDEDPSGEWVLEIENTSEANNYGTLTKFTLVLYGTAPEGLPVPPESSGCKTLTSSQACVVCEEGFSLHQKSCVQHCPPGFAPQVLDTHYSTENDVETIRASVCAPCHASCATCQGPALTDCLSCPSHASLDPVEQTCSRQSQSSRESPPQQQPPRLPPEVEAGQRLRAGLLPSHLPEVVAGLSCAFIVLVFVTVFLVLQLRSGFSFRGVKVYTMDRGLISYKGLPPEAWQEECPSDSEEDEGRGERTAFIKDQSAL

Take “PC1/3-prodomain mutant M2 ((77)A-R-S-A-A) (from UniProt P29120 28-110) (domain or fragment)”: the figures for the Ki in the data set with furin (human) [1] and with furin (human) [2] were 0.73 nM and 0.88 nM, respectively.
Regarding “PC1/3-prodomain mutant M5 ((77)R-K-S-A-R) (from UniProt P29120 28-110) (domain or fragment)”, in the data set with furin (human) [1], the inhibitory constant (Ki) was 0.139 nM.
“PC1/3-prodomain, wild type (15N-labelled for NMR)”: in data set [3], the pKa, His72 of the PC1/3-prodomain (WT) was 4.82 pH units; the pKa, His75 of the PC1/3-prodomain (WT) amounted to 5.03 pH units; the pKa, His85 of the PC1/3-prodomain (WT) amounted to 5.6 pH units.
Take “PC1/3-prodomain mutant M1 (R78A) (from UniProt P29120 28-110) (domain or fragment)”: the inhibitory constant (Ki) in the data set with furin (human) [1] came out at 0.56 nM; in the data set with furin (human) [2] it was 2.2 nM.
For the molecule “Proprotein convertase 1/3 (PC1/3, neuroendocrine convertase 1) prodomain, wild type (Homo sapiens)”, the pKa with His85 is given as 5.60; with His75 it was 5.03; with His72, 4.82.

B1: PC1/3-prodomain combination mutant M10 (M5 with His72Leu) (domain or fragment)
chain: GKRQFVNEWAAEIPGGPEAASAIAEELGYDLLGQIGSLENHYLFKLKNHPRKSARSAFHITKRLSDDDRVIWAEQQYEKERSKR
With B1, the Ki with furin (human) [1] was determined as 0.101 nM; with furin (human) [2], 0.14 nM.
